Source: US20110086026A1 (ROCHE PALO ALTO, published 2011)
Each block holds one molecule with its values, some of them ahead of it.

What was measured:
[1] = molecular target: Cynomolgus IL-13Rα1 expressed in transfected Ba/F3 cells (Cynomolgus); assay: FACS, transfected against parental Ba/F3 cells; negative control
[2] = molecular target: Cynomolgus IL-13Rα1 expressed in transfected Ba/F3 cells (Cynomolgus); assay: FACS on Ba/F3 cells transfected with Cynomolgus IL-13Rα1; negative control
[3] = molecular target: Cynomolgus IL-13Rα1 expressed in transfected Ba/F3 cells (Cynomolgus); assay: FACS, transfected against parental Ba/F3 cells; secondary reagent only
[4] = molecular target: Cynomolgus IL-13Rα1 expressed in transfected Ba/F3 cells (Cynomolgus); assay: FACS on Ba/F3 cells transfected with Cynomolgus IL-13Rα1; secondary reagent only
human IL-13Rα1 [5] = molecular target: T1, human IL-13Rα1 (human, UniProt P78552 22-427); assay: displacement of 125I-IL-13 on CHO cells expressing human IL-13Rα1 and IL-4Rα
T1 sequence (looked up): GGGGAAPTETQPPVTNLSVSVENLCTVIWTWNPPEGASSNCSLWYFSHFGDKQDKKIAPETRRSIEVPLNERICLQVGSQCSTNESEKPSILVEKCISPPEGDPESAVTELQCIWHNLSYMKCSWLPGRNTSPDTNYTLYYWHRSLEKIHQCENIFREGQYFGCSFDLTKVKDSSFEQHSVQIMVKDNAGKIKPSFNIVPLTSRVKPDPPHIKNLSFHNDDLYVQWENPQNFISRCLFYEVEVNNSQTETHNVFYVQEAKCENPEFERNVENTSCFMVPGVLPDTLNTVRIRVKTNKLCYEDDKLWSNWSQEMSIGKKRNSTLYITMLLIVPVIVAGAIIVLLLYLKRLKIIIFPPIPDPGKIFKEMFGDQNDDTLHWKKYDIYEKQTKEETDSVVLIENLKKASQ

[6] = molecular target: Chimeric protein murine IL-13Rα1:hFc (R&D Systems, UK) (mouse) (UniProt O09030); assay: ELISA, immobilized murine IL-13Rα1:hFc, detection with anti-goat IgG-POD, OD 405nm
Chimeric protein murine IL-13Rα1:hFc (R&D Systems, UK) (mouse), sequence (O09030 26-340, change not shown): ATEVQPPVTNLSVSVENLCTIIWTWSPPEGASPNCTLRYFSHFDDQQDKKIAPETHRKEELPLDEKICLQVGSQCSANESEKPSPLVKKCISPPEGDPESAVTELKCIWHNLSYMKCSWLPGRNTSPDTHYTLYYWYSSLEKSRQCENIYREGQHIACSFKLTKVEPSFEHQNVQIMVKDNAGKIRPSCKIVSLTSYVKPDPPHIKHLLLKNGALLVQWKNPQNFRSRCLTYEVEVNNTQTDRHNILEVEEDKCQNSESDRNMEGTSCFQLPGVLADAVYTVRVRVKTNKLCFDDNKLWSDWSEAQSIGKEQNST

[7] = molecular target: Cynomolgus IL-13Rα1 expressed in transfected Ba/F3 cells (Cynomolgus); assay: FACS on Ba/F3 cells transfected with Cynomolgus IL-13Rα1, 10 µg/ml
[8] = molecular target: extracellular domain of IL-13Rα1 (R&D Systems, UK) (human) (UniProt P78552); assay: ELISA, immobilized extracellular domain of human IL-13Rα1, detection with anti-goat IgG-POD, OD 405nm-492nm
human IL-13Rα1 [9] = molecular target: T1, human IL-13Rα1; assay: cell-based or functional assay
[10] = molecular target: Cynomolgus IL-13Rα1 expressed in transfected Ba/F3 cells (Cynomolgus); assay: FACS, transfected against parental Ba/F3 cells, 10 µg/ml
[11] = molecular target: T2, extracellular domain of hIL-13Rα1 cleaved from hIL-13Rα1:hFc chimeric protein (human, UniProt P78552 22-343); assay: SPR Biacore 3000, CM5 chip, HuMab captured by anti-hFcγ, cleaved hIL-13Rα1 as analyte, bivalent analyte model
T2 construct: extracellular domain; also called Cleaved hIL-13Rα1 molecules (MW 40 kDa)
T2 sequence (looked up): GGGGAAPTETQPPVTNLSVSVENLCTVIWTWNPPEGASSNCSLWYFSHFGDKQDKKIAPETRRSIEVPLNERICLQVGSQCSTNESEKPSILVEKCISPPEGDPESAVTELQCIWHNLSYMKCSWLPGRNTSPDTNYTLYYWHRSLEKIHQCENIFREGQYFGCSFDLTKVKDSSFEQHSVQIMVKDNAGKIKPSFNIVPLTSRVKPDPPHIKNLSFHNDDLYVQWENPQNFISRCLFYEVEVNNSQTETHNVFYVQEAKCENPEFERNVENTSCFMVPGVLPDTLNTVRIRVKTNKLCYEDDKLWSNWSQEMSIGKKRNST
Method: (§1) In these experiments, the affinity of the original IgG1 derived from hybridoma was compared with the affinities of the recombinant variant IgG1-Ala-Ala. For interaction analysis, a Biacore 3000 instrument was used. Running and reaction buffer was HBS-P (10 mM HEPES, 150 mM NaCl, 0.005% polysurfactant P, pH 7.4) at 25° C. Capturing antibody molecules (anti-hFcγ) were amine-coupled at a concentration of 20 μg/ml at a flow rate of 5 μl/min for 20 minutes. HuMabs were injected at concentrations of 10 μg/ml at a flow rate of 10 μl/min for 1 minute. Cleaved hIL-13 Rα1 molelcules (analyte) were injected for five minutes at eight concentrations between 1.56 nM and 200 nM and washed with HBS-P for five minutes. Regeneration of the surface was accomplished by two injections of 100 mM HCl for 1 min each. The chip, assay format and sequence of injections and kinetic data correspond to the description in Table 4. Kinetic data were calculated by fitting kinetic data to a bivalent analyte binding model.

[12] = molecular target: T2, extracellular domain of hIL-13Rα1 …; assay: SPR Biacore 3000, CM5 chip, HuMab captured by anti-hFcγ, cleaved hIL-13Rα1 as analyte, bivalent analyte model (ka1)
Method: as §1

[13] = molecular target: T2, extracellular domain of hIL-13Rα1 …; assay: SPR Biacore 3000, CM5 chip, HuMab captured by anti-hFcγ, cleaved hIL-13Rα1 as analyte, bivalent analyte model (kd1)
Method: as §1

[14] = molecular target: T2, extracellular domain of hIL-13Rα1 …; assay: SPR Biacore 3000, C1 chip, HuMab captured by anti-hFcγ, cleaved hIL-13Rα1 as analyte, 1:1 Langmuir model
Method: For interaction analysis, a Biacore 3000 instrument was used. Running and reaction buffer was HBS-P (10 mM HEPES, 150 mM NaCl, 0.005% polysurfactant P, pH 7.4) at 25° C. Capturing antibody molecules (anti-hFcγ) were amine-coupled at a concentration of 100 μg/ml at a flow rate of 5 μl/min for 20 minutes. HuMabs were injected at concentrations of 10 μg/ml at a flow rate of 10 μl/min for 30 seconds. Cleaved hIL-13Rα1 molecules (MW 40 kDa) were injected for 200 seconds at seven concentrations between 1.56 nM and 100 nM and washed with HBS-P for five minutes. Regeneration of the surface was accomplished by two injections of 100 mM HCl for 1 min each at a flow rate of […]. The chip, assay format and sequence of injections and kinetic data correspond to the description in the following Table 3. Kinetic data were calculated by fitting kinetic data to a 1:1 Langmuir binding model.

- Fold Increase in MFI in the presence of Cyno IL-13Rα1 [1]: 2.4
- MFI Ba/F3 Cyno IL-13Rα1 [2]: 5.7 MFI
Molecule: Normal goat IgG (antibody)

- Fold Increase in MFI in the presence of Cyno IL-13Rα1 [3]: 2.2
- MFI Ba/F3 Cyno IL-13Rα1 [4]: 5.5 MFI
Molecule: Anti human IgG-FITC only (antibody)

- IC50 (human IL-13Rα1 [5]): 84.8 nM
- EC50 (read off the curve) [6]: 0.2 nM
- MFI Ba/F3 Cyno IL-13Rα1 [7]: 21.2 MFI
- EC50 (read off the curve) [8]: 0.6 nM
- IC50, IL-13-induced Stat-6 phosphorylation in BSMC (human IL-13Rα1 [9]): 18.6 nM
- IC50, TF-1 proliferation in response to IL-13 (human IL-13Rα1 [9]): 13.5 nM
- IC50 for IL-4-induced TF-1 proliferation (human IL-13Rα1 [9]): 74.4 nM
- IC50 for inhibiting of CD23 upregulation on B-lymphocytes (IL-13 induced) (human IL-13Rα1 [9]): 13.6 nM
- IC50 for inhibition of IL-13 induced CD23 upregulation on human monocytes (human IL-13Rα1 [9]): 62.9 nM
- average IC50, eotaxin release of HFL-1 cells in response to IL-13 (human IL-13Rα1 [9]): 11.5 nM
- Fold Increase in MFI in the presence of Cyno IL-13Rα1 [10]: 18
Molecule: polyclonal goat anti-hIL-13Rα1 antibody AF152 (R&D Systems)

- Fold Increase in MFI in the presence of Cyno IL-13Rα1 [1]: 6.7
- MFI Ba/F3 Cyno IL-13Rα1 [2]: 10.2 MFI
Molecule: Normal human IgG1 (Nordic) (antibody)

- Kd [11]: 2.8 nM
- kon [12]: 153000 M⁻¹ s⁻¹
- koff [13]: 0.00042 s⁻¹
- Kd [14]: 0.21 nM
- koff [14]: 0.00029 s⁻¹
- kon [14]: 1.4e+06 M⁻¹ s⁻¹
B1: LC5002-005, mutant L234A; L235A (antibody, V domains shown)
VH: EVQVLDSGGGLVQPGGSLRLSCTASGFTFRLYTMSWVRQTPGRGLEWVSGISGSGLSTYFADSVKGRFTISRDNSKNTVYLQMNSLRAEDTAVYYCAKEGDWIYFDSWGQGTLVIVSS
VL: DIQMTQSPSSLSASVGDRVTITCRASQGISSWLAWYQQKPEKAPKSLIYAASSLQSGVPSRFSGSGSGTDFTLTISSLQPEDFATYYCQQYNSHPPTFGQGTKLEIKR
notes: Recombinant IgG1 variant; also called IgG1 ala-ala LC5002-005; recombinant variant IgG1-Ala-Ala
